B1: BSK1^55-512: BSK1 (residues 55–512) after incubation with BRI1^814−1196 (protein)
chain: IPSFSEFSFADLKAATNNFSSDNIVSESGEKAPNLVYKGRLQNRRWIAVKKFTKMAWPEPKQFAEEAWGVGKLRHNRLANLIGYCCDGDERLLVAEFMPNDTLAKHLFHWENQTIEWAMRLRVGYYIAEALDYCSTEGRPLYHDLNAYRVLFDEDGDPRLSCFGLMKNSRDGKSYSTNLAYTPPEYLRNGRVTPESVTYSFGTVLLDLLSGKHIPPSHALDMIRGKNIILLMDSHLEGKFSTEEATVVVELASQCLQYEPRERPNTKDLVATLAPLQTKSDVPSYVMLGIKKQEEAPSTPQRPLSPLGEACSRMDLTAIHQILVMTHYRDDEGTNELSFQEWTQQMKDMLDARKRGDQSFREKDFKTAIDCYSQFIDVGTMVSPTVFGRRSLCYLLCDQPDAALRDAMQAQCVYPDWPTAFYMQSVALAKLNMNTDAADMLNEAAQLEEKRQRGGRGS
modifications: phosphorylated by incubation with BRI1^814−1196 (mainly Ser230); left off: 8xHis, N-terminal, cleaved | tandem StrepII, N-terminal, cleaved
B2: BRI1^814-1196: isolated BRI1 cytoplasmic domain (residues 814–1196) after incubation with the BAK1 cytoplasmic domain (protein)
chain: GREMRKRRRKKEAELEMYAEGHGNSGDRTANNTNWKLTGVKEALSINLAAFEKPLRKLTFADLLQATNGFHNDSLIGSGGFGDVYKAILKDGSAVAIKKLIHVSGQGDREFMAEMETIGKIKHRNLVPLLGYCKVGDERLLVYEFMKYGSLEDVLHDPKKAGVKLNWSTRRKIAIGSARGLAFLHHNCSPHIIHRDMKSSNVLLDENLEARVSDFGMARLMSAMDTHLSVSTLAGTPGYVPPEYYQSFRCSTKGDVYSYGVVLLELLTGKRPTDSPDFGDNNLVGWVKQHAKLRISDVFDPELMKEDPALEIELLQHLKVAVACLDDRAWRRPTMVQVMAMFKEIQAGSGIDSQSTIRSIEDGGFSTIEMVDMSIKEVPEGKL
modifications: auto- and transphosphorylated by incubation with BAK1^250−615; sites not given
notes: isolated BRI1 cytoplasmic domain (residues 814–1196) after incubation with the BAK1 cytoplasmic domain
B3: BIN2^7-380: BIN2 (residues 7–380) expressed either in Escherichia coli or in insect cells (protein)
chain: MPAAVVDGHDQVTGHIISTTIGGKNGEPKQTISYMAERVVGTGSFGIVFQAKCLETGETVAIKKVLQDRRYKNRELQLMRVMDHPNVVCLKHCFFSTTSKDELFLNLVMEYVPESLYRVLKHYSSANQRMPLVYVKLYMYQIFRGLAYIHNVAGVCHRDLKPQNLLVDPLTHQVKICDFGSAKQLVKGEANISYICSRFYRAPELIFGATEYTTSIDIWSAGCVLAELLLGQPLFPGENAVDQLVEIIKVLGTPTREEIRCMNPHYTDFRFPQIKAHPWHKIFHKRMPPEAIDFASRLLQYSPSLRCTALEACAHPFFDELREPNARLPNGRPFPPLFNFKQEVAGSSPELVNKLIPDHIKRQLGLSFLNQSGT
modifications: left off: thioredoxin A, N-terminal, cleaved | 8xHis, N-terminal, cleaved | StrepII, N-terminal, cleaved
notes: BIN2 (residues 7–380) expressed either in Escherichia coli or in insect cells
B4: BAK1^250-615: BAK1/SERK3 cytoplasmic domain (residues 250–615) after incubation with BRI1^814−1196 (protein)
chain: RRKKPQDHFFDVPAEEDPEVHLGQLKRFSLRELQVASDNFSNKNILGRGGFGKVYKGRLADGTLVAVKRLKEERTQGGELQFQTEVEMISMAVHRNLLRLRGFCMTPTERLLVYPYMANGSVASCLRERPESQPPLDWPKRQRIALGSARGLAYLHDHCDPKIIHRDVKAANILLDEEFEAVVGDFGLAKLMDYKDTHVTTAVRGTIGHIAPEYLSTGKSSEKTDVFGYGVMLLELITGQRAFDLARLANDDDVMLLDWVKGLLKEKKLEALVDVDLQGNYKDEEVEQLIQVALLCTQSSPMERPKMSEVVRMLEGDGLAERWEEWQKEEMFRQDFNYPTHHPAVSGWIIGDSTSQIENEYPSGPR
modifications: auto- and transphosphorylated by incubation with BRI1^814−1196; sites not given

Biological target: T1, Arabidopsis 14-3-3 isoform kappa (14-3-3κ) (Arabidopsis thaliana, UniProt P48348)
T1 construct: Full-length At14-3-3-κ^1−248 (Uniprot-ID P48348, http://uniprot.org); thioredoxin A (trxA) fusion (N, cleaved yes); 8xHis (N, cleaved yes); StrepII (N, cleaved yes); made in house; host or cells: E. coli BL21 (DE3) RIL
Experiment: biochemical
Type: binding
Conditions: ITC; proteins auto-/transphosphorylated or expressed in E. coli or insect cells as described
Excerpt: Full-length At14-3-3-κ^1−248 (Uniprot-ID P48348, http://uniprot.org), At14-3-3-λ^1−248 (P48349), At14-3-3-ω^1−259 (Q01525) or C-terminal truncated At14-3-3-κ^1−240, At14-3-3-λ^1−240 or At14-3-3-ω^1−237 isoforms and BIN2^7−380 from Arabidopsis were cloned from synthetic genes codon-optimized for expression in E. coli (Geneart, Thermofisher, Tauberbischofsheim, Germany) into vector pMH-HStrxT providing an N-terminal thioredoxin A (trxA) fusion protein containing 8xHis and StrepII affinity tags, and a tobacco etch virus protease (TEV) recognition site. Protein expression in E. coli BL21 (DE3) RIL grown to OD600nm= 0.6 was induced with 0.2 mM ispropyl β-D-galactoside in terrific broth at 16°C for 16 h. Cells were collected by centrifugation at 4500 × g for 30 min, washed in PBS buffer, centrifuged again at 4500 × g for 15 min and snap-frozen in liquid N2. For protein purification cells were resuspended in buffer A (20 mM Tris–HCl pH 8.0, 500 mM NaCl), and lysed by sonication (Branson DS450). The lysate was cleared by centrifugation at 7000 × g for 60 min and filtrated using a 0.45 µm molecular weight cutoff filter (Pall Corporation, Port Washington, NY, USA). The supernatant was loaded onto a Ni^2+ affinity column (HisTrap HP 5 mL, Cytiva Life Sciences, Freiburg im Breisgau, Germany), washed with buffer A and eluted in buffer A supplemented with 250 mM imidazole pH 8.0. The elution fractions containing the trxA-14-3-3 or trxA-BIN2 fusion proteins were loaded onto a 5 mL Strep-Tactin Superflow High Capacity column (IBA Lifesciences, Goettingen, Germany), washed with buffer A and eluted in buffer A supplemented with 2.5 mM desthiobiotin. […] Dimeric (14-3-3s) or monomeric (BIN2) peak fractions were concentrated to 10–40 mg/ml and used directly for biochemistry and crystallization experiments. Point mutations were introduced by site-directed mutagenesis and variants At14-3-3 λ^N233A and 14-3-3 λ^R136L/Y137F were purified using the same protocol as described for the wild type.
The BRI1^814−1196 and BAK1^250−615/SERK3 cytoplasmic domains were purified as previously described ([Bojar et al. 2014]). BSK1 (residues 55–512), BSU1 (residues 1–793) and BIN2 (residues 7–380) were cloned into a modified pACEBac1 plasmid ([Bieniossek et al. 2012]) providing TEV-cleavable N-terminal 8xHis and tandem StrepII affinity tags, and expressed in baculovirus-infected Trichoplusia ni Tnao cells ([Hashimoto et al. 2010]). Cells grown to a density of 1.5 × 10^6 cells ml^−1 were infected with 10 ml of virus subjected to two rounds of viral amplification per 250 ml of cells and incubated for 48 h at 28°C. […]

T1 sequence (P48348 whole entry, the tested form may be a part, canonical isoform): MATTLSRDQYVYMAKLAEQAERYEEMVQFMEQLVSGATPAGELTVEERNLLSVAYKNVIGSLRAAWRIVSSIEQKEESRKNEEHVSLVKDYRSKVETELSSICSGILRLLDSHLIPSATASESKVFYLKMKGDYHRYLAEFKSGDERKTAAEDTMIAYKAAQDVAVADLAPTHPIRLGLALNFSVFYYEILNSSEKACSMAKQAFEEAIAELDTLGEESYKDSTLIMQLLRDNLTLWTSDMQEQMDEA

Row | Molecule | binding to 14-3-3κ, in words
1 | B1 | No specific binding was detected
2 | B2 | No specific binding was detected
3 | B3 | No specific binding was detected
4 | B4 | No specific binding was detected

From article PMC11558545, “Mechanistic Insights into the Function of 14-3-3 Proteins as Negative Regulators of Brassinosteroid Signaling in Arabidopsis” (Plant and Cell Physiology, 2024)
